From patent US20220235138A1, “CAR-T CELLS TARGETING IL-1RAP AND THEIR USE IN ACUTE MYELOID LEUKEMIA (AML)” (ETABLISSEMENT FRANCAIS DU SANG, priority 2019, published 2022)
“And” between values parts separate entries of the source, which are not always exact repeats. Equal values may be shown once.

Experiments:
IL-1RAP = experiment: Immunostaining of FDA standard frozen normal tissue array; assay type: binding, human; design: key to Staining intensity (0 to 3+): negative (0); weak staining (1+); moderate staining (2+); strong staining (3+); settings: for Staining intensity (0 to 3+): replicates
Sequence of IL-1RAP (Q9NPH3 21-570): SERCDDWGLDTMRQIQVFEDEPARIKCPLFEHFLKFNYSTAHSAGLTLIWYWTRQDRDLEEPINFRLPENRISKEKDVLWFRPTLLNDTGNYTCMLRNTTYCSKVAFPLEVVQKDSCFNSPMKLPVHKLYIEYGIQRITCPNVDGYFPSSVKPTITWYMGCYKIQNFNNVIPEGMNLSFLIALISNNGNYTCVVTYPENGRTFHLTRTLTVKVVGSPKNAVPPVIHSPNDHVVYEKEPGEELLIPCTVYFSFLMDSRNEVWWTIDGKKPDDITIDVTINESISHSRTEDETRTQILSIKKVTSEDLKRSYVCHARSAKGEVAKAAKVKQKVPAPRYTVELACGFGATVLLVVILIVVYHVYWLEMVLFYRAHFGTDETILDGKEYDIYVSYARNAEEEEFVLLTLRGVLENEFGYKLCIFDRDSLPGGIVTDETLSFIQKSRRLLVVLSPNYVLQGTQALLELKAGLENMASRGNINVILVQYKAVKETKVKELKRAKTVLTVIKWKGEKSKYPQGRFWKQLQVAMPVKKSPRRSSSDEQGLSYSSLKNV
Source text: FIG. 13: (A) Tissue microarray. Representative #A3C3 staining of an US Food and Drug Administration standard frozen tissue array, including 90 tissue cores (30 organs) of 3 individual donors per organ (US Biomax, Rockville, Md., USA). Immunostaining was detected using the UltraView Universal DAB Detection Kit (Ventana, USA). Images were acquired and analyzed with NDP.view 2.0 software. […] (Scale bars, 100 μm.) High IL-1RAP (KU812) or negative (Raji)-expressing cell lines were respectively used as positive or negative controls. (B) IL-1RAP R&D (red) or #A3C3 (blue) staining of HMEC-1 dermal endothelial cell line. Isotype IgG1 (gray) is depicted as overlay. RFI is provided for both staining.
In order to study specific or non-target tissue binding, FDA standard frozen tissue arrays, including 90 tissue cores (30 organs) of 3 individual donors per organ (US Biomax, Rockville, United States) were incubated as previously described. Immunostaining was detected using UltraView Universal DAB Detection Kit (Ventana, USA). Images were acquired and analyzed with NDP.view 2 software. High IL-1RAP (KU812) or negative (Raji) expressing cell lines were respectively used as positive or negative controls. The staining intensity was graduated as follows: negative (0), weak staining (1+), moderate staining (2+), or strong staining (3+). […]

[1] = system: healthy hematopoietic cells (HSCs, monocytes); experiment: IL-1RAP cell surface staining of healthy donor peripheral blood and bone marrow cells; assay type: binding
Experimental: (A) IL-1RAP cell surface expression on peripheral blood (left) or bone marrow (right) cells from healthy donors (n=5). SSC-A/CD45+ allowed discrimination of subpopulations as lymphocytes (SSC-A low), monocytes (CD33+), granulocytes (SSC-A high), or HSCs (CD33−/CD34+). RFI was calculated from isotype staining and provided in each window. (B) Representative (1 of 3) IL-1RAP staining of whole human cord blood cells. IL-1RAP staining is provided for whole CD34+, CD34+/CD38−, and CD34+/CD38+ HSC cord blood subpopulations. (C) IL-1RAP-positive cells among CD34+ cells in cord blood (CB, n=5) or bone marrow (BM) from healthy donors (n=5) compared to CD34+ cells from the BM (n=10) or peripheral blood (PB, n=10) from CML patients. […] Percentages were calculated using absolute cell number determined using Trucount tubes based on 5000 fluorescent-bead cytometry acquisition. (F) Left, Gating strategy and analysis for absolute count of CID AP1903-induced cell death. […] The quantification was performed after acquiring 5000 fluorescent beads. Killing efficiency was normalized to control cells (untreated cells). Cell killing was calculated as follows: % Dead cells=[1−(absolute number of viable cells in AP1903-treated cells/absolute number of viable cells in untreated cells)]×100. (D) Absolute percentage of mortality. 24 h or 48 h C0 or IL-1RAP CAR (gated on CD3+/CD19+) T cell CID exposure. […]

AML blasts = experiment: Flow cytometry on primary cells from AML patients; assay type: cell-based, human; settings: all subtypes, n=30
Source text: FIG. 3: Flow cytometry-gating strategy on AML primary samples of patients. RFI is provided for blasts and monocytes subpopulations (Left). Percentage of IL-1RAP+ within AML blasts and monocytes, CD123+ and IL-1RAP+/CD123+ cells within AML Blasts in a cohort of routine AML (all subtypes) patients (n=30) (Right, up). RFI is also provided (Right, bottom).
For primary samples of bone marrow or peripheral bloods of AML patients, the murine IL-1RAP mAb (#E3C3) was included in a panel allowing to detect CD45, CD34, CD38, CD33, CD123, and CD14 (for monocytes). Stained cells were collected by a CANTO II cytometer (BD Biosciences, Le Pont-de-Claix, France) and analyzed by DIVA 6.1 software (BD Biosciences, Le Pont-de-Claix, France).

B1: #A3C3: mouse anti-hIL-1RAP monoclonal antibody generated by standard hybridoma technique; VH SEQ ID No 2, VL SEQ ID No 4 (antibody, V domains shown)
VH: MGWSCIILFLVATATGVNSQVQLQQPGAELMMPGASVKVSCEASGYTFTDSWMHWVKQRPGQGLEWIGAIDPSDSYTTYNQKFTGKATLSVDESSNTAYMQLSSLTSEDSAVYYCARYYSGSNYISPFPYWGQGTLVTVSA
VL: MESQIQVFVFVFLWLSGVDGDIVMTQSHKFMSTSVGDRVTITCKASLDVSTAVAWYQQKPGQSPKLLIYSASYRYTGVPDRFTGSGSGTDFTFTISSVQAEDLAVYYCQQHYSPPFTFGSGTNLEIK
modifications: Amino acid sequence of chain H (VH) of murine scFv anti-IL-1RAP; Amino acid sequence of chain K (VL) of murine scFv anti-IL-1RAP
B1 was tested, and the “Staining intensity (0 to 3+)” value (IL-1RAP; Adrenal gland) was 0, the “Staining intensity (0 to 3+)” value (IL-1RAP; Cerebellum tissue) was 0 and the “Comments: stained epithelial cells” value (IL-1RAP; Colon) was “Epithelial cells (~30%);”. The “Comments: stained inflammatory elements” value (IL-1RAP; Colon) was “(100%)”, the “Staining intensity (0 to 3+)” value (IL-1RAP; Colon) was 3+ and the “Staining intensity (0 to 3+)” value (IL-1RAP; Esophagus) was 0. The “Staining intensity (0 to 3+)” value (IL-1RAP; Heart) was 0, the “Staining intensity (0 to 3+)” value (IL-1RAP; Kidney) was 0 and the “Staining intensity (0 to 3+)” value (IL-1RAP; Liver) was 0. The “Comments: stained elements” value (IL-1RAP; Lung) was “Few inflammatory elements”, the “Staining intensity (0 to 3+)” value (IL-1RAP; Lung) was 2+ and the “Comments: stained endothelial cells” value (IL-1RAP; Lymph node) was ~30% of endothelial cells. For the same molecule, the “Staining intensity (0 to 3+)” value (IL-1RAP; Lymph node) was 2+ and 1+, the “Staining intensity (0 to 3+)” value (IL-1RAP; Ovary) was 0 and the “Staining intensity (0 to 3+)” value (IL-1RAP; Pancreas) was 1+. The “Staining intensity (0 to 3+)” value (IL-1RAP; Peripheral nerve) was 0, the “Staining intensity (0 to 3+)” value (IL-1RAP; Pituitary gland) was 0 and the “Comments: stained cytotrophoblast cells” value (IL-1RAP; Placenta) was “Cytotrophoblast cells (~10%)”. The “Staining intensity (0 to 3+)” value (IL-1RAP; Placenta) was 0, the “Comments: stained endothelial cells” value (IL-1RAP; Prostate) was ~10% of endothelial cells and the “Staining intensity (0 to 3+)” value (IL-1RAP; Prostate) was 1+ (2×) and 0 (4×). For the same molecule, the “Staining intensity (0 to 3+)” value (IL-1RAP; Salivary gland) was 0, the “Comments: stained endothelial cells” value (IL-1RAP; Skeletal muscle 1) was ~10% of endothelial cells and the “Staining intensity (0 to 3+)” value (IL-1RAP; Skeletal muscle, first listing) was 1+ and 0 (2×). The “Staining intensity (0 to 3+)” value (IL-1RAP; Skeletal muscle, second listing) was 0, the “Staining intensity (0 to 3+)” value (IL-1RAP; Skin) was 0 and the “Comments: stained epithelial cells” value (IL-1RAP; Small intestine) was “Epithelial cells (~30%);”. For the same molecule, the “Comments: stained inflammatory elements” value (IL-1RAP; Small intestine) was “(100%)”, the “Staining intensity (0 to 3+)” value (IL-1RAP; Small intestine) was 2+ and 0 and 1+ and the “Staining intensity (0 to 3+)” value (IL-1RAP; Smooth muscle) was 0. The “Staining intensity (0 to 3+)” value (IL-1RAP; Spinal cord) was 0, the “Comments: stained elements” value (IL-1RAP; Spleen) was “Necrotic elements” and the “Staining intensity (0 to 3+)” value (IL-1RAP; Spleen) was 3+. For the same molecule, the “Comments: stained epithelial cells” value (IL-1RAP; Stomach 1) was “cells <10%”, the “Comments: stained gastric mucosa cells” value (IL-1RAP; Stomach 1) was “(~10%); few epithelial” and the “Staining intensity (0 to 3+)” value (IL-1RAP; Stomach) was 1+ and 0 (2×). For the same molecule, the “Staining intensity (0 to 3+)” value (IL-1RAP; Testis) was 0, the “Staining intensity (0 to 3+)” value (IL-1RAP; Thyroid gland) was 0 and the “Staining intensity (0 to 3+)” value (IL-1RAP; Ureter) was 0. For the same molecule, the “Staining intensity (0 to 3+)” value (IL-1RAP; Uterine cervix) was 0, the RFI ([1]; HSCs in bone marrow from healthy donors, n=5) was less than 1.2 and the RFI ([1]; monocyte subpopulation, weak staining in 2/5 peripheral blood and 3/5 bone marrow from healthy donors) was less than 2. The “presence of IL-1RAP on AML blasts, percentage” value (AML blasts) was 84.27±17.4%.
